Assay results published in IntAct's records for PubMed 24947010.

B1: Parkinson disease protein 7 (Homo sapiens), Q99497 (parent)
chain: MASKRALVILAKGAEEMETVIPVDVMRRAGIKVTVAGLAGKDPVQCSRDVVICPDASLEDAKKEGPYDVVVLPGGNLGAQNLSESAAVKEILKEQENRKGLIAAICAGPTALLAHEIGFGSKVTTHPLAKDKMMNGGHYTYSENRVEKDGLILTSRGPGTSFEFALAIVEALNGKEVAAQVKAPLVLKD

Variants of: B1
Conditions: with rack1_human RACK1, P63244

Row | Variant | effect of a mutation on the interaction
1 | MASKRALVILAKGAEEMETVIPVDVMRRAGIKVTVAGLAGKDPVQSSRDVVICPDASLEDAKKEGPYDVVVLPGGNLGAQNLSESAAVKEILKEQENRKGLIAAICAGPTALLAHEIGFGSKVTTHPLAKDKMMNGGHYTYSENRVEKDGLILTSRGPGTSFEFALAIVEALNGKEVAAQVKAPLVLKD [C46S] | disrupting interaction strength
2 | MASKRALVILAKGAEEMETVIPVDVMRRAGIKVTVAGLAGKDPVQCSRDVVISPDASLEDAKKEGPYDVVVLPGGNLGAQNLSESAAVKEILKEQENRKGLIAAICAGPTALLAHEIGFGSKVTTHPLAKDKMMNGGHYTYSENRVEKDGLILTSRGPGTSFEFALAIVEALNGKEVAAQVKAPLVLKD [C53S] | decreasing interaction strength
3 | MASKRALVILAKGAEEMETVIPVDVMRRAGIKVTVAGLAGKDPVQCSRDVVICPDASLEDAKKEGPYDVVVLPGGNLGAQNLSESAAVKEILKEQENRKGLIAAISAGPTALLAHEIGFGSKVTTHPLAKDKMMNGGHYTYSENRVEKDGLILTSRGPGTSFEFALAIVEALNGKEVAAQVKAPLVLKD [C106S] | disrupting interaction strength
